B1: #1-L4-#1: dimer of VHH #1 with linker L4 (GSEGKSSGSGSESKST), SEQ ID NO: 23 (protein)
VHH: QLQLVESGGGSVQAGGSLRLSCAASRSLSRFNVWTWYRQAPVKQRELVASITKSGDTNYAESVKGRFIISRDDDKNTVYLQMNNLKSEDTGIYYCAGSYYSGSYLYPSPGGFSVWGQGTQVTVSSGSEGKSSGSGSESKSTQLQLVESGGGSVQAGGSLRLSCAASRSLSRFNVWTWYRQAPVKQRELVASITKSGDTNYAESVKGRFIISRDDDKNTVYLQMNNLKSEDTGIYYCAGSYYSGSYLYPSPGGFSVWGQGTQVTVSS
modifications: #1-L4-#1
B2: VHH Clone #1: alpaca-derived VHH single-domain antibody (monomer) binding FGFR1, amino acid sequence SEQ ID NO: 17 (protein)
VHH: QLQLVESGGGSVQAGGSLRLSCAASRSLSRFNVWTWYRQAPVKQRELVASITKSGDTNYAESVKGRFIISRDDDKNTVYLQMNNLKSEDTGIYYCAGSYYSGSYLYPSPGGFSVWGQGTQVTVSS
modifications: VHH_Clone_#1
B3: VHH Clone #2: alpaca-derived VHH single-domain antibody (monomer) binding FGFR1, amino acid sequence SEQ ID NO: 18 (protein)
VHH: QVQLVESGGGLVQAGGSLRLSCAVPGSIFRFNTMGWYRQPPGKQRELVAQMSRGGITKYGDSVKGRFTITRDNAKNTVHLQMNSLKPEDTAVYYCAGSYYSGSYYYPSPQGFSVWGQGTQVTVSP
modifications: VHH_Clone_#2

How the values were obtained:
[1] = system: mouse fibroblast cell line NIH/3T3; experiment: Inhibition of growth factor activity of VHH homodimer by FGFR inhibitor (fibroblasts); type: cell-based; details: 10 and 100 ng/ml test substance plus FGFR kinase inhibitor
From the text: Promotion of Fibroblast Growth by VHH (Homodimer)” described above.
It was examined whether the cell growth activities of bFGF and the single-domain antibody were inhibited by NPV-BGJ398 which is an FGFR kinase inhibitor.

[2] = system: NIH3T3 (mouse fibroblast cell line); experiment: Inhibition of growth factor activity of VHH homodimer by FGFR antagonist; type: cell-based; details: 10 or 100 ng/mL test substance, 20 nM NVP-BGJ398
Method: The cell growth assay for FGF2 was performed according to the following procedure. On Day 1, a suspension including 2.5×10^4 cells/mL of NIH3T3 in DMEM of 10% CS and PS(+) was created, seeded on a CulturPlate-96 (White Opaque 96-well Microplate, manufactured by Perkin Elmer, Cat #6005680) at 100 μL/well, and cultured in a 5% CO2 incubator at 37° C. for 16 to 24 hours. On Day 2, the medium was replaced with FGF2 (PeproTech Cat #AF-100-18B) or serum-free PS(+) DMEM including various test substances, and the cells were further cultured for 2 days. On Day 4, the 96-well plate was left at room temperature for 30 minutes, and then 100 μL of Cell Titer Glo 2.0 Reagent (manufactured by Promega Corporation) at room temperature was added to each well, followed by stirring at 500 rpm for 2 minutes using a plate mixer. The plate was further left to stand for 8 minutes, and then the luminescence in each well was measured with a Synergy HTX plate reader (manufactured by BioTek) with a sensitivity set (Gain) of 200 and a measurement time of 1 s/well.
The addition amounts of FGF2 and #1L4 (hereinafter also referred to as “#1-L4-#1”), which is a dimer of VHH #1 with a linker […], were each 10 or 100 ng/mL.

FGFR1-DII = biological target: T1, FGFR1-DII (Homo sapiens, UniProt P11362); experiment: Binding activity by biolayer interference (BLI) to FGFR1-DII; details: Octet, VHH immobilized
T1 construct: The FGFR1 extracellular domain has DII and DIII domains; made in house; host or cells: AAVpro293T cells
T1 sequence (P11362 158-246 limits assumed): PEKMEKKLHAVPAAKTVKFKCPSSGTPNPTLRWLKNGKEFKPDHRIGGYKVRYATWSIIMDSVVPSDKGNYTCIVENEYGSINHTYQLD
Method: The FGFR1 extracellular domain has DII and DIII domains. Each of an FGFR1 extracellular domains (hereinafter may be abbreviated as “FGFR1-DIIDIII”, “FGFR1-DII”, or “FGFR1-DIII”) was expressed using AAVpro293T cells as follows, these domains were purified, and an affinity measurement test with VHH Clone #1 was performed by a biolayer interference (BLI) method.
The binding activities of FGFR1-DIIDIII, FGFR1-DII, and FGFR1-DIII to VHH Clone #1 were measured by a biolayer interference method (hereinafter sometimes abbreviated as “BLI”). In BLI, using Octet 384 (manufactured by Fortebio), VHH Clone #1 diluted with a kinetics buffer (0.05% Tween20-containing PBS, pH 7.4) was immobilized on an Anti-Penta-HIS (HIS1K, manufactured by Fortebio) sensor chip, and bound to FGFR1-DIIDIII, FGFR1-DII, and FGFR1-DIII, which had been adjusted from 100 nM in 2-fold serial dilutions, and the dissociation rate was measured.
In the preparation for measurement, a tip of the sensor chip was immersed in 200 μL of the kinetics buffer for 10 minutes in order to hydrate the sensor chip. […]
After completion of the measurements, the measured value of a Reference (only the kinetics buffer) was subtracted from the actual measurement value, and Global Fitting was performed using a 1:1 binding model using Octet software to calculate the binding activity (FIG. 22).

FGFR1-Fc = biological target: T2, FGFR1-Fc (Homo sapiens, UniProt P11362); experiment: Affinity measurement of VHH (monomer) by surface plasmon resonance (SPR); details: 1:1 binding model; for ka: 25° C.; for Kd: Biacore T200, 25° C., read-out: equilibrium dissociation constant (KD)
T2 construct: each consisting of an extracellular region of FGFR1; purchased R & D Systems 661-FR
T2 sequence (P11362 22-285 isoform P11362-14 limits assumed): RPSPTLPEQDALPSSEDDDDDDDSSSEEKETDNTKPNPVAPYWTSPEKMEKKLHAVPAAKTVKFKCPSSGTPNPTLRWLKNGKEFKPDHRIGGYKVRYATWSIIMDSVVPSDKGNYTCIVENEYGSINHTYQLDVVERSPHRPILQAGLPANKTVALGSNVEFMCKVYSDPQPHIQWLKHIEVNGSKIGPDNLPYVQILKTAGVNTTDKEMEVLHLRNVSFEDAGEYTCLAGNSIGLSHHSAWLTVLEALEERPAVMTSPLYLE
Method: Affinity measurement of VHH (monomer) was performed by a surface plasmon resonance (SPR) method.
The binding activity of VHH Clone #1 or VHH Clone #2 immobilized on Series S Sensor Chip CAP (manufactured by Cytiva) with respect to FGFR1-Fc was measured using Biacore (registered trademark) T200 (manufactured by Cytiva). Measurement was performed by CAP Single-cycle Kinetics. The temperature was set to 25° C. As a running buffer, 10 mM HEPES (pH 7.4) (Cytiva) including HBS-EP+(150 mM NaCl, 0.5 mM EDTA, and 0.05% surfactant P20) was used. The measurement order for each run is as follows.
1) Immobilization of biotinylated FGFR1-Fc: The flow rate was set to […], Biotin CAPture Reagent (Cytiva) was added thereto for 300 seconds, then the flow rate was set to […], and an FGFR1-Fc solution diluted with a running buffer was added thereto for 120 seconds to immobilize 140 RU. Here, the “resonance unit (RU)” is a unit used in the above-described Biacore, and a change of an SPR angle of 0.1° is defined as 1,000 RU.
2) Measurement of binding activity: The flow rate was set to 30 μL/mL, and VHH Clone #1 or VHH Clone #2 each diluted to 1.85 nM, 5.56 nM, 16.67 nM, or 50 nM, using a running buffer, was allowed to have an association time set to 120 seconds for binding and a dissociation time set to 600 seconds for interaction.
3) Regeneration of sensor chip surface: The flow rate was set to 10 μL/mL, a solution in which Reaneration stock 1 and Regeneration stock 2 (manufactured by Cytiva) were mixed at the ratio of 3:1 was added thereto for 120 seconds to extract the immobilized VHH. Next, analysis was performed with a 1:1 binding model using Biacore T200 Evaluation (software version 2.0, manufactured by Cytiva), and the binding activity was calculated.

Molecule	cell growth with addition of NPV-BGJ398 [1]	cell growth activity with addition of NVP-BGJ398 [2]	KD (M) (FGFR1-DII)	ka (FGFR1-Fc) [M⁻¹ s⁻¹]	Kd (FGFR1-Fc) [nM]
FGF2: fibroblast growth factor (basic), human, recombinant (154aa), positive control; SEQ ID NO: 58 [reference compound]	suppressed cell growth	inhibited	–	–	–
B1	suppressed cell growth	inhibited	–	–	–
B2	–	–	No Binding	8.19e+06	1.74
B3	–	–	–	1.11e+06	1.02
